Patent US7558625B2, “Combined micro-channel generation and iontophoresis for transdermal delivery of pharmaceutical agents” (TransPharma Medical Ltd., priority 2004, dated 2009)

What was measured:
[1] = Transdermal delivery of hGH by ViaDerm and iontophoresis in anesthetized rats, serum hGH (Elisa); type: in vivo; conditions: for Serum hGH levels: ViaDerm, Avg.; for AUC: serum hGH, 1.5 mg hGH patch
Description: Two groups of rats were tested. […] One group was connected to a power supply (constructed in house) and the other was not. The hGH loaded patch was connected to the negative pole of the power supply.
Rats (males, 300-325 gr, Sprague Dawley) were kept under anesthesia throughout the experiment. The following experimental groups were investigated: • Group 1—Passive delivery: 3 rats were treated with ViaDerm on two adjacent sites (total area 2.8 cm^2) over which the iontophoresis patch was placed. The reference electrode assembly was placed on a shaved intact skin on the back of the anal. The power supply was not turned on. • Group 2—Iontophoresis delivery: 3 rats were treated with ViaDerm on two adjacent sites (total area 2.8 cm^2) over which the iontophoresis patch was placed. The reference electrode assembly was placed on a shaved intact skin on the back of the animal. The power supply was turned on.
ViaDenm operating parameters: Burst length—700 μsec; Voltage—330V; Number of bursts—2; Two applications on the same skin area (150 pores/cm^2); Without current limitation; 80 μm diameter electrode arrays; Current density used: 0.18 mA/cm^2.
To detect hGH levels in serum—Elisa kit (DSL Inc. Webster, Tex., USA) was used.

[2] = Transdermal delivery of hGH by ViaDerm and iontophoresis in anesthetized pigs, plasma hGH; type: in vivo; conditions: SC 0.25 mg hGH
Description: ViaDerm applications were performed on 8 adjacent sites on the marginal ear of each of the pigs using 80 μm electrodes and 2 bursts.
2 groups of pigs (males, 10-15 kg, large white) were tested: • Group 1: SC (250 μg)—3 pigs (no. 3, 9 and 25). • Group 2: ViaDerm and then iontophoresis was applied 5 times, each iontophoresis patch contained 22.5 mg (22.5×5; total of 112.5 mg)—3 pigs (no. 19, 20 and 21). Results

hGH: human growth hormone (Genotropin, Pharmacia and Upjohn)
AUC of ViaDerm and iontophoresis versus ViaDerm only (passive delivery) [1]: 3.5 fold | skin observation after removal of the iontophoretic patches ([1]; 0.18 mA/cm^2, end of experiment): burn marks were seen at the contact area of the electrode | duration of hGH delivery ([1]; ViaDerm treated skin): more than 6 hours | Serum hGH levels ([1]; Passive Patch 1.5 mg hGH, 0 h): 0.1 ng/mL | Serum hGH levels ([1]; Passive Patch 1.5 mg hGH, 0.75 h): 5.1 ng/mL | Serum hGH levels ([1]; Passive Patch 1.5 mg hGH, 1.5 h): 14.0 ng/mL | Serum hGH levels ([1]; Passive Patch 1.5 mg hGH, 2.25 h): 23.3 ng/mL | Serum hGH levels ([1]; Passive Patch 1.5 mg hGH, 3 h): 40.8 ng/mL | Serum hGH levels ([1]; Passive Patch 1.5 mg hGH, 6 h): 34.0 ng/mL | Serum hGH levels ([1]; Patch 1.5 mg hGH + Iontophoresis, 0 h): 0.1 ng/mL | Serum hGH levels ([1]; Patch 1.5 mg hGH + Iontophoresis, 0.75 h): 22.7 ng/mL | Serum hGH levels ([1]; Patch 1.5 mg hGH + Iontophoresis, 1.5 h): 61.1 ng/mL | Serum hGH levels ([1]; Patch 1.5 mg hGH + Iontophoresis, 2.25 h): 109.8 ng/mL | Serum hGH levels ([1]; Patch 1.5 mg hGH + Iontophoresis, 3 h): 128.9 ng/mL | Serum hGH levels ([1]; Patch 1.5 mg hGH + Iontophoresis, 6 h): 175.1 ng/mL | AUC ([1]; ViaDerm and iontophoresis): 637 ng·h/mL | AUC ([1]; ViaDerm only (passive delivery)): 182 ng·h/mL | hGH plasma levels ([2]; pig3, 0 h): 0.14 ng/mL | hGH plasma levels ([2]; pig3, 1 h): 6.40 ng/mL | hGH plasma levels ([2]; pig3, 2 h): 10.57 ng/mL | hGH plasma levels ([2]; pig3, 3 h): 6.02 ng/mL | hGH plasma levels ([2]; pig3, 4 h): 5.39 ng/mL | hGH plasma levels ([2]; pig3, 5 h): 2.57 ng/mL | hGH plasma levels ([2]; pig3, 6 h): 3.35 ng/mL | hGH plasma levels ([2]; pig3, 7 h): 2.40 ng/mL | hGH plasma levels ([2]; pig3, 8 h): 2.00 ng/mL | hGH plasma levels ([2]; pig3, 9 h): 1.48 ng/mL | hGH plasma levels ([2]; pig3, 10 h): 1.18 ng/mL | hGH plasma levels ([2]; pig3, 11 h): 1.49 ng/mL | hGH plasma levels ([2]; pig3, 12 h): 1.75 ng/mL | hGH plasma levels ([2]; pig9, 0 h): 0.08 ng/mL | hGH plasma levels ([2]; pig9, 1 h): 22.96 ng/mL | hGH plasma levels ([2]; pig9, 2 h): 18.06 ng/mL | hGH plasma levels ([2]; pig9, 3 h): 15.88 ng/mL | hGH plasma levels ([2]; pig9, 4 h): 12.39 ng/mL | hGH plasma levels ([2]; pig9, 5 h): 9.85 ng/mL | hGH plasma levels ([2]; pig9, 6 h): 6.53 ng/mL | hGH plasma levels ([2]; pig9, 7 h): 6.31 ng/mL | hGH plasma levels ([2]; pig9, 8 h): 4.19 ng/mL | hGH plasma levels ([2]; pig9, 9 h): 2.58 ng/mL | hGH plasma levels ([2]; pig9, 10 h): 1.83 ng/mL | hGH plasma levels ([2]; pig9, 11 h): 1.25 ng/mL | hGH plasma levels ([2]; pig9, 12 h): 0.88 ng/mL | hGH plasma levels ([2]; pig25, 0 h): 0.10 ng/mL | hGH plasma levels ([2]; pig25, 1 h): 38.06 ng/mL | hGH plasma levels ([2]; pig25, 2 h): 31.00 ng/mL | hGH plasma levels ([2]; pig25, 3 h): 16.32 ng/mL | hGH plasma levels ([2]; pig25, 4 h): 13.40 ng/mL | hGH plasma levels ([2]; pig25, 5 h): 8.69 ng/mL | hGH plasma levels ([2]; pig25, 6 h): 6.66 ng/mL | hGH plasma levels ([2]; pig25, 7 h): 3.89 ng/mL | hGH plasma levels ([2]; pig25, 8 h): 2.76 ng/mL | hGH plasma levels ([2]; pig25, 9 h): 1.67 ng/mL | hGH plasma levels ([2]; pig25, 10 h): 1.19 ng/mL | hGH plasma levels ([2]; pig25, 11 h): 1.09 ng/mL | hGH plasma levels ([2]; pig25, 12 h): 0.78 ng/mL | hGH plasma levels ([2]; pigs, Average, 0 h): 0.1 ng/mL | hGH plasma levels ([2]; pigs, Average, 1 h): 22.5 ng/mL | hGH plasma levels ([2]; pigs, Average, 2 h): 19.9 ng/mL | hGH plasma levels ([2]; pigs, Average, 3 h): 12.7 ng/mL | hGH plasma levels ([2]; pigs, Average, 4 h): 10.4 ng/mL | hGH plasma levels ([2]; pigs, Average, 5 h): 7.0 ng/mL | hGH plasma levels ([2]; pigs, Average, 6 h): 5.5 ng/mL | hGH plasma levels ([2]; pigs, Average, 7 h): 4.2 ng/mL | hGH plasma levels ([2]; pigs, Average, 8 h): 3.0 ng/mL | hGH plasma levels ([2]; pigs, Average, 9 h): 1.9 ng/mL | hGH plasma levels ([2]; pigs, Average, 11 h): 1.3 ng/mL
